Experimental findings from US20120171699A1 (Merck KGaA, published 2012) are described below.

Experiment [1] deals with integrin β1 chain on cells (UniProt P05556). Nature of the experiment: live cell flow cytometry on M21, 10 µg/ml antibody; relative to second layer alone. On the technique in general: In flow cytometry, cells or beads pass a laser one at a time.
The target is the same in experiment [2]. Description: live cell flow cytometry on M24Met, 10 µg/ml antibody; relative to second layer alone.
Experiment [3] shares this target. Nature of the experiment: live cell flow cytometry on A549, 10 µg/ml antibody; relative to second layer alone.
Experiment [4] shares this target. Nature of the experiment: live cell flow cytometry on M21-L, 10 µg/ml antibody; relative to second layer alone.
Experiment [5] has the same target. Nature of the experiment: live cell flow cytometry on M21-Gpiib, 10 µg/ml antibody; relative to second layer alone.
The target is the same in experiment [6]. Nature of the experiment: live cell flow cytometry on HT-29, 10 µg/ml antibody; relative to second layer alone.
For experiment [7] the target is unchanged. Nature of the experiment: live cell flow cytometry on HUVEC, 10 µg/ml antibody; relative to second layer alone.
For experiment [8], the target named is T1, integrin αvβ5 on cells (human, UniProt P06756 31-1048; P18084 24-799).
T1 construct: whole, on cells; Endogenous integrin of live cells (FACS) or of FFPE cells and xenografts (IHC)
The description is as above.

In experiment [9] the target is T1, integrin αvβ5 on cells. Nature of the experiment: live cell flow cytometry on M21, 10 µg/ml antibody; relative to second layer alone.
For experiment [10], the target named is T1, integrin αvβ5 on cells. Description: live cell flow cytometry on A549, 10 µg/ml antibody; relative to second layer alone.
Experiment [11] concerns the target T1, integrin αvβ5 on cells. Nature of the experiment: live cell flow cytometry on HT-29, 10 µg/ml antibody; relative to second layer alone.
In experiment [12] the target is T1, integrin αvβ5 on cells. Description: live cell flow cytometry on M24Met, 10 µg/ml antibody; relative to second layer alone.
Experiment [13] has as its target T2, integrin αvβ3 on cells (human, UniProt P06756 31-1048; P05106 27-788).
T2 construct: whole, on cells; Endogenous integrin of live cells (FACS) or of formalin fixed paraffin embedded cells and xenografts (IHC); the cell line is named under assay; also called αvβ3 complex
Nature of the experiment: live cell flow cytometry on HUVEC, 10 µg/ml antibody; relative to second layer alone.
Description: (§1) Cells in log growth were harvested using trypsin (0.5 μg/ml)/EDTA (0.2 μg/ml), washed in FACS buffer (PBS plus 0.9 mM CaCl₂; 0.5 mM MgCl₂; 0.5% w/v BSA), and incubated with anti-integrin antibodies (60 min; 4° C.; 10 μg/ml in FACS buffer). […] Cells were analyzed on a FACScan (Becton-Dickinson) and the mean intensity fluorescence (MIF) was normalized to the MIF of the negative control (cells stained with PI and secondary labeled antibody, without primary antibody).
(§2) The RabMabs were assessed in FACS compared to standard well characterized murine monoclonal antibodies.

For experiment [14], the target named is T2, integrin αvβ3 on cells. Description: live cell flow cytometry on M21, 10 µg/ml antibody; relative to second layer alone.
Description: as §1, §2
In experiment [15] the target is T2, integrin αvβ3 on cells. Description: live cell flow cytometry on M24Met, 10 µg/ml antibody; relative to second layer alone.
Description: as §1, §2
The target in experiment [16] is T3, full length human gpiibiiia purified from platelets (human, UniProt P08514 32-1039; P05106 27-788).
T3 construct: mature; Extracted from outdated human platelets with octylglucoside; also called intact αiibβ3; full length purified platelet gpiibiiia
Nature of the experiment: ELISA, integrin coated at 1 µg/ml, antibody serially diluted.
Description: (§3) Recombinant integrins (1 μg/ml) were coated on microtiter plates by adsorption (4° C.; 16 h) from coating buffer (150 mM NaCl; 1 mM CaCl₂; 1 mM MgCl₂; 10 μM MnCl₂; 50 mM Tris-Cl; pH 7.5). The plates were washed (wash buffer: 0.5% BSA; 0.05% Tween 20 in PBS), blocked (1 h; 4° C.; 5% BSA in PBS), and incubated with primary antibodies serially diluted in wash buffer (1 h; 37° C.). After washing, secondary detection antibody (goat-anti-rabbit HRP; 1:5000) was added (1 h; 37° C.), followed by washing and detection using tetramethyl-benzidine (100 μg/ml) in citrate-phosphate buffer (pH 5.0), development with sulphuric acid, and reading against a reagent blank at 450 nm.

Experiment [17] concerns the target T4, recombinant human integrin αvβ3 extracellular domain (DTM-αvβ3) (human, UniProt P06756 31-992).
T4 construct: extracellular domain; Heterodimer made in High Five insect cells with baculovirus; also called Human αvβ3 ECD
Described as above.
Description: as §3

For experiment [18], the target named is T5, integrin αiibβ3 on M21-gpiib melanoma cells (UniProt P08514 32-1039; P05106 27-788).
T5 construct: whole, on cells
Description: live cell flow cytometry on M21-Gpiib, 10 µg/ml antibody; relative to second layer alone.
Description: as §1, §2

For experiment [19], the target named is T6, integrin αv chain on cells (human, UniProt P06756 31-1048).
T6 construct: whole, on cells; Endogenous αv of live cells (FACS) or FFPE cells and xenografts (IHC); also called Human αv; αv-integrin
Description: live cell flow cytometry on M21, 10 µg/ml antibody; relative to second layer alone.
Description: as §1, §2

For experiment [20], the target named is T6, integrin αv chain on cells. Nature of the experiment: live cell flow cytometry on M24Met, 10 µg/ml antibody; relative to second layer alone.
Description: as §1, §2
For experiment [21], the target named is T6, integrin αv chain on cells. Description: live cell flow cytometry on HUVEC, 10 µg/ml antibody; relative to second layer alone.
Description: as §1, §2
For experiment [22], the target named is T7, recombinant human integrin αvβ5 extracellular domain (DTM-αvβ5) (human, UniProt P06756 31-992).
T7 construct: extracellular domain; Heterodimer made in High Five insect cells; also called Human αvβ5 ECD
Nature of the experiment: ELISA, integrin coated at 1 µg/ml, antibody serially diluted. A general note: In an ELISA, binding on a coated surface is turned into a signal by an enzyme label.
Description: as §3

Experiment [23] addresses T8, recombinant human integrin αvβ8 extracellular domain (DTM-αvβ8) (human, UniProt P06756 31-992).
T8 construct: extracellular domain; Heterodimer made in High Five insect cells; also called Human αvβ8 ECD
The experiment is described as above.

The target in experiment [24] is recombinant human integrin αvβ6 extracellular domain (DTM-αvβ6) (human) (UniProt P18564). The description is as above.
The target in experiment [25] is T5, integrin αiibβ3 on M21-gpiib melanoma …. Description: live cell flow cytometry on M21-gpiib melanoma cells.
Description: as §1, §2
Experiment [26] addresses T7, recombinant human integrin αvβ5 …. Nature of the experiment: ELISA, hybridoma supernatants on the recombinant αvβ5 extracellular domain (FIG. 10).
The target of experiment [27] is T4, recombinant human integrin αvβ3 …. Nature of the experiment: ELISA, hybridoma supernatants on recombinant αvβ3 against αvβ5 extracellular domains (FIG. 10).
In experiment [28] the target is T3, full length human gpiibiiia purified …. Description: ELISA, integrin coated at 1 µg/ml.
Description: as §3
In experiment [29] the target is T4, recombinant human integrin αvβ3 …. Description: ELISA, integrin coated at 1 µg/ml.
Description: as §3

integrin β1 chain on cells, sequence (P05556 21-798 limits assumed): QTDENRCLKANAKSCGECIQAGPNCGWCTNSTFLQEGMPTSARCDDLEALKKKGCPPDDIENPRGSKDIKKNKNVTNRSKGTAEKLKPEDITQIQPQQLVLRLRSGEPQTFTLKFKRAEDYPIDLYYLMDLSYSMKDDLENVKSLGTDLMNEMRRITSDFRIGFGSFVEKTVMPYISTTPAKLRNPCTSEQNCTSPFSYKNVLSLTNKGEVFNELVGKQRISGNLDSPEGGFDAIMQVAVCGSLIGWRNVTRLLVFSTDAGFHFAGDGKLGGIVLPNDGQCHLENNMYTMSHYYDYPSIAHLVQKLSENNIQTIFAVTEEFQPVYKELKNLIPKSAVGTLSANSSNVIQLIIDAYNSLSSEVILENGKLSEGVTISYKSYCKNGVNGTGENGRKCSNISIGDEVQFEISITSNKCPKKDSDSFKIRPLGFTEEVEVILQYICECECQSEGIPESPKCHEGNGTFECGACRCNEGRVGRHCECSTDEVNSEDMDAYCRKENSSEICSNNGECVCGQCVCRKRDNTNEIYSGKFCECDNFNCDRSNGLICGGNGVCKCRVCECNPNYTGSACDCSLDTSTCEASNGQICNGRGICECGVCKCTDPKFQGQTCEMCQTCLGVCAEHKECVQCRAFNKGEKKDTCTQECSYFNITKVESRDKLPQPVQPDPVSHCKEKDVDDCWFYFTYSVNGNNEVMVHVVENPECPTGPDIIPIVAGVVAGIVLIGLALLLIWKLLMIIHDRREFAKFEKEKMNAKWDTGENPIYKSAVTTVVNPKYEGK

Consider P4C10 (antibody), for which the rMIF in [1] was 7.2; in experiment [2], 14; in experiment [3], 7.5; in [4] it was 12.1; in experiment [5], 10.8; in experiment [6], 14.5. This molecule also gave a rMIF in experiment [7] of 38.9.
In the case of P1F6 (antibody), the rMIF turned out to be 2.7 in experiment [8]; 3.8 in experiment [9]; 3.6 in experiment [10]; 3.2 in [11]; 3.8 in experiment [12].

B1: LM609 (antibody, V domains shown)
VH: EVQLVESGGGLVKPGRSLRLSCAASGFAFSSYDMSWVRQIPEKRLEWVAKVSSGGGSTYYLDTVQGRFTISRDNAKNTLYLQMSSLNSEDTAMYYCARHNYGSFAYWGQGTLVTVSA
VL: DIVLTQSPATLSVTPGDSVSLSCQASQSISNHLHWYQQKSHESPRLLIKYRSQSISGIPSRFSGSGSGTDFALSINSVETEDFGMYFCQQSGSWPHTFGGGTKLEIK
Consider B1, for which the rMIF is 10.7 in experiment [13], 9.1 in experiment [14] and 4.9 in [15].

B2: EM22703 (antibody, V domains shown)
VH: QSVKESEGGLFKPTDTLILTCTVSGFSLSSYGVSWVRQAPGNGLEYIGSISTTGITYYASWAKSRSTITRNTNLYTVTLKMTGLTAADTATYFCARGFPGHLRKPSDIWGPGTLVTVSA
VL: AQVLTQTPSSVSAAVGGTVSISCQSSESVYADIALSWFQQKPGQPPKLLIYGASTLASGVPSRFSGSGSGTEFTLTISDVQCDAAATYYCAGDYGAGTEPNLFGGGTEVVVSG
notes: Rabbit monoclonal; Hybridoma and recombinant forms are kept as one molecule
The term IC50 denotes the point on the concentration scale where inhibition reaches its midpoint. As for B2, the rMIF in [13] amounted to 12.4; in experiment [14] it was 17.6; in [18] it was 56; in [15], 8.1. Besides, the half-inhibitory concentration (IC50) is 0.85 ng/mL in [16] and 1.4 ng/mL in [17].

B3: 17E6 (antibody, V domains shown)
VH: QVQLQQSGAELAEPGASVKMSCKASGYTFSSFWMHWVKQRPGQGLEWIGYINPRSGYTECNEIFRDKATMTADTSSSTAYMQLSGLTSEDSAVYYCASFLGRGAMDYWGQGTSVTVSS
VL: DIQMTQTTSSLSASLGDRVIISCRASQDISNYLSWYQQKPDGTVKLLIFYTSKLHSGVPSRFSGSGSGTDYSLTISNLDQEDIATYFCQQGNTFPYTFGGGTKVEMR
As for B3, the rMIF turned out to be 9.3 in experiment [19] and 7.8 in experiment [20].

B4: EM01309 (antibody, V domains shown)
VH: QSVEESGGRLVTPGTSLTLTCTVSGIDLTSNSLSWVRQAPGKGLEWIGAISSRATTYFAAWAKGRFTISRTSTTVDLRITSLTASDTATYFCGKFNLWGQGTLVTVSS
VL: AQVLTQTPSSVSAAVGGTVTINCQASQSVASNNALAWFQQKPGQPPKLLIYYASTLASGVPSRFKGSGSGTQFTLTISDLECADAATYYCLGGYDCRGTDCNVFGGGTEVVVKG
notes: Rabbit IgG monoclonal; Hybridoma and recombinant forms are kept as one molecule; also called E3875-013-9; E3875-13-9
Turning to B4, the rMIF in experiment [21] turned out to be 28.8; in experiment [19] it was 1.3; in experiment [18], 1; in experiment [20] it was 2.5. For the same molecule, the IC50 is 4.7 ng/mL in experiment [17], 5.6 ng/mL in [22], 4.1 ng/mL in [23] and 4.9 ng/mL in experiment [24]. Besides, the binding result in [25] is given as “no binding (tested: 10 µg/ml)”.

B5: EM09902 (antibody, V domains shown)
VH: QEQLEESGGGLVQPEGSLTLTCTVSGFPLRNVWISWVRQAPGKGLEWIGCIYTGRDWPYYASWAKGRFTISKSSSTTVTLQMTSLTATDTATYFCARIVYGGAGYRLWGPGTLVTVSS
VL: ALVMTQTPPSVEAAVGGTVTINCQASQDIGSDLAWYQQKPGQPPKLLIYSASSLASGVPSRFKASGSGTQFTLTISDVQCDDAATYSCAGYKSYSDDGHGFGGGTEVVVKG
notes: Rabbit monoclonal; Hybridoma and recombinant forms are kept as one molecule; also called E3536-99-1; E3536-99-2
The EC50 is the concentration at which the effect is half-maximal. As to B5, in [26], the EC50 turned out to be 50 pM. The rMIF came to 33.9 in experiment [8], 7.2 in experiment [9], 1.9 in [18] and 40.1 in experiment [12]. Also, in experiment [27], the “factor in apparent Kd, αvβ5 over αvβ3” value was over 100 fold. Besides, the half-inhibitory concentration (IC50) was about 400 ng/mL in experiment [16], about 450 ng/mL in [17] and 5.6 ng/mL in experiment [22]. In addition, the “cross-reactivity, fold in IC50 against the immunogen” value in experiment [28] and in experiment [29] was about 100 fold in each case.
